Measured values from patent publication US8729030B2 (Affymax, Inc., priority 2003, dated 2014).
Bridges are numbered along the chain shown (N, C = ends). Where no end group is shown, it is not given here. [ ]: non-standard residue; d: D form. 1Nal = N[C@@H](Cc1cccc2ccccc12)C(=O)O; Sar = CNCC(=O)O

Molecular target: T1, human EPO-R (Homo sapiens, UniProt P19235)
T1 construct: expressed in transfected cells; host or cells: murine pre-B-cell line Baf3 (BaF3/Gal4/Elk/EPOR)
T1 sequence (P19235 25-508): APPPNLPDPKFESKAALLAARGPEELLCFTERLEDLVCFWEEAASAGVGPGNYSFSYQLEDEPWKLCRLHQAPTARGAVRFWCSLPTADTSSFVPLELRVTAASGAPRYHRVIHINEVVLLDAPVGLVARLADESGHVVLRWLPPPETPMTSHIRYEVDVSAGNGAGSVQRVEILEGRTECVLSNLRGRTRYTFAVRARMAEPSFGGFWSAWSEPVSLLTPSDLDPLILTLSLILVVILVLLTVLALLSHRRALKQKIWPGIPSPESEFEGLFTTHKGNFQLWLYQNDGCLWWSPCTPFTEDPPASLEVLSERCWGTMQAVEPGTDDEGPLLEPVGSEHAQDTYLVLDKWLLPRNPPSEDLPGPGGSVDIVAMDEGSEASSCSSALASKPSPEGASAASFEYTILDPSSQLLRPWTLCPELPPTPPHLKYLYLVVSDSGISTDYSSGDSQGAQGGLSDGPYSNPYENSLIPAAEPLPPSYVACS
Experiment: Proliferation assay (BaF3/Gal4/Elk/EPOR cells, MTT)
Format: cell-based
Details: Table 6, 48 h
Protocol: This assay is based upon a murine pre-B-cell line, Baf3, transfected to express human EPO-R. Proliferation of the resulting cell line, BaF3/Gal4/Elk/EPOR, is dependent on EPO-R activation. The degree of cell proliferation is quantitated using MTT, where the signal in the MTT assay is proportional to the number of viable cells.
The BaF3/Gal4/Elk/EPOR cells are cultured in spinner flasks in DMEM/F12 medium (Gibco) supplemented with 10% FBS (Hyclone) and 2% WEHI-3 supernatant (ATCC #TIB-68). Cultured cells are starved overnight, in a spinner flask at a cell density of 1×10^6 cells/ml, in DMEM/F12 medium supplemented with 10% FBS and 0.1% WEHI-3 supernatant. […] Absorbance of each well at a wavelength of 595 nm is then measured by spectrophotometry. Plots of the absorbance readings versus test peptide concentration are constructed and the EC50 calculated using Graph Pad software. The concentration of test peptide that results in a half-maximal absorbance is recorded as the EC50[See Table 2: Proliferation EC50].
The BaF3/Gal4/Elk/EPOR cells are cultured in spinner flasks in DMEM/F12 medium (Gibco) supplemented with 10% FBS (Hyclone) and 2% WEHI-3 supernatant (ATCC #TIB-68). […] Absorbance of each well at a wavelength of 595 nm is then measured by spectrophotometry. Plots of the absorbance readings versus test peptide concentration are constructed and the EC50 calculated using Graph Pad software. […]

EC50: 0.165 nM
Substance: peptide dimer of monomers (AcG)GLYACHMGPIT(1-nal)VCQPLR(MeG)K (SEQ ID NO: 2) (Ac-GGLYACHMGPIT[1Nal]VCQPLR[Sar]K; disulfide 6-15 (inferred); not fully specified (residue 1); printed as (AcG)GLYACHMGPIT(1-nal)VCQPLR(MeG)K; also: homodimer, dimer linkage not given here) [Peptide I]
